Experimental data taken from patent EP1482987B1 (Bracco Suisse SA, dated 2014).
*1 amine or outer side, *2 acyl side, *3 side chain or, on linkers, in order; H or OH if unused. Bridges are numbered along the chain shown (N, C = ends). Roman numbers before positions name the chains, in order. Primed or numbered codes have the meaning given here. Where no end group is shown, it is not given here. Side-chain parts run from the residue outwards. The star is where a group is joined. ivDde′ = (4,4-dimethyl-2,6-dioxocyclohex-1-ylidene)-3-methylbutyl protecting group, CC(C)CC(=C1C(=O)CC(C)(C)CC1=O)*; Biotin = O=C1N[C@H]2[C@H](CS[C@H]2CCCCC(=O)*)N1; Glutaryl = O=C(CCCC(=O)[*:2])[*:1]; AEEA = NCCOCCOCC(=O)O

What was measured:
[1] = target: KDR (full-length receptor) expressed on transiently transfected 293H cells (human) (UniProt P35968); assay: competition with 300 pM 125I-VEGF on KDR-transfected 293H cells; peptide 30 µM
[2] = target: KDR (full-length receptor) expressed on transiently transfected 293H cells (human) (UniProt P35968); assay: competition with 300 pM 125I-VEGF on KDR-transfected 293H cells; peptide 0.3 µM
[3] = target: KDR on human umbilical vein endothelial cells (HUVECs) (human, UniProt P35968 20-1356); assay: cell-based or functional assay
Soluble KDR receptor = Soluble KDR receptor (UniProt P35968 20-764, limits assumed); assay: SPR (Biacore 3000), soluble KDR on CM5
Chain of Soluble KDR receptor (P35968 20-764 limits assumed): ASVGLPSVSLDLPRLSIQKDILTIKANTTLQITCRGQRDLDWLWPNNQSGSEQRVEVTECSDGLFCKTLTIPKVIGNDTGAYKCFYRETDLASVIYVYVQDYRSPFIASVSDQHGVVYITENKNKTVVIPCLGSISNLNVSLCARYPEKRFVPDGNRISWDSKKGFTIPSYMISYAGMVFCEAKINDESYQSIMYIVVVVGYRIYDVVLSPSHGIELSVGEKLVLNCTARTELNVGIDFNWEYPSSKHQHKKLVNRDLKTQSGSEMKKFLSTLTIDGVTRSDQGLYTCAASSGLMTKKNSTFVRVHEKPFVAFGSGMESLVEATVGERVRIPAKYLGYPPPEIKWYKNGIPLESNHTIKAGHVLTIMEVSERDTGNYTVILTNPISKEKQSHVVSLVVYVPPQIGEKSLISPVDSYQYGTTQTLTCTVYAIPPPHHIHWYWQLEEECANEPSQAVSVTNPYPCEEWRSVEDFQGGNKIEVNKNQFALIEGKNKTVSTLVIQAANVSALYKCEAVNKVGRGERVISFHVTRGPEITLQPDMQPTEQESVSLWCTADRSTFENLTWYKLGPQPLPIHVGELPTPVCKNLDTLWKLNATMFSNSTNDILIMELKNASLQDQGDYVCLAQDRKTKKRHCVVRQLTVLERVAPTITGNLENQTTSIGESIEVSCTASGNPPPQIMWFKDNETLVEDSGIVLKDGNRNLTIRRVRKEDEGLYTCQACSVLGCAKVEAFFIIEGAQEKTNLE

Chain of KDR on human umbilical vein endothelial cells (HUVECs) (P35968 20-1356): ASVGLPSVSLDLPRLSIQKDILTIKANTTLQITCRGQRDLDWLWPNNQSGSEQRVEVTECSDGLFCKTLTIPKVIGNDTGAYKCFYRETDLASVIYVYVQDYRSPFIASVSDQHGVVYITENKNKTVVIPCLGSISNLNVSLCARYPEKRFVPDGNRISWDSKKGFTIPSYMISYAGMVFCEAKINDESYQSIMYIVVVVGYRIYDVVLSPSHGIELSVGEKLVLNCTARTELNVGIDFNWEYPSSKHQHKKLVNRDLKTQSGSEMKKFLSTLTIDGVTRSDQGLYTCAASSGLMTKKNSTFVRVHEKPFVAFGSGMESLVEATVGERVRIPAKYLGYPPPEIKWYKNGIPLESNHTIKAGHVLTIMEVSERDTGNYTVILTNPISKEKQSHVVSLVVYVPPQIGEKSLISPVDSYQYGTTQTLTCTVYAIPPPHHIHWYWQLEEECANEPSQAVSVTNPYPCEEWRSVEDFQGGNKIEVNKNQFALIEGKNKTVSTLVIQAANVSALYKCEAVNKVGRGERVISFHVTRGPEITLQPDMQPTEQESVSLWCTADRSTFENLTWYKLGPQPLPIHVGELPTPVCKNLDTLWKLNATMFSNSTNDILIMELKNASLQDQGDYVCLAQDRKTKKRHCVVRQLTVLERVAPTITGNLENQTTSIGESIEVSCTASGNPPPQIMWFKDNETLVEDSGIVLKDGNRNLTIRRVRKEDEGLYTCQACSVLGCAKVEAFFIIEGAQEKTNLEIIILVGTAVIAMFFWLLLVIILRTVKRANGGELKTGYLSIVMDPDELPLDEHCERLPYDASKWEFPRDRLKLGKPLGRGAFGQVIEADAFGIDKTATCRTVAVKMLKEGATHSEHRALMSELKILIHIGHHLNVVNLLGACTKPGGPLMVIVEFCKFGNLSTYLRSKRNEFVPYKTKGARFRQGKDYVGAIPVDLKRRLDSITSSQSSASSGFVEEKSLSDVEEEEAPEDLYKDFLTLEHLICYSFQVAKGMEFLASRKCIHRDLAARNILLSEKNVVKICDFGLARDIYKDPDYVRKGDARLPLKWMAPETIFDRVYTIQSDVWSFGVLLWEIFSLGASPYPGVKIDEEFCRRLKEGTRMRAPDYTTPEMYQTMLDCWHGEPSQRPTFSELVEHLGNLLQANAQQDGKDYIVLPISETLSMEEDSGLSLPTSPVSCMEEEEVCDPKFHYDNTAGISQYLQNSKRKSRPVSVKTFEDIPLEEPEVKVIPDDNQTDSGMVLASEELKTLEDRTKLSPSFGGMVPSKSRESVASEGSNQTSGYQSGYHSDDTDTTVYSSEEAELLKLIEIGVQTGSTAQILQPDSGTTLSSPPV
Chain of KDR (full-length receptor) expressed on transiently transfected 293H cells (human) (P35968 20-1356): as above

Binder: GDSRVCWEDSWGGEVCFRYDP [P6]
- % inhibition of 125I-VEGF binding [1]: 96.3%
- % inhibition of 125I-VEGF binding [2]: 52.3%

B1: P12-XB (peptide)
peptide: Ac-AGPTWCEDDWYYCWLFGTGGGK([AEEA-AEEA-Biotin])-NH2
modifications: disulfide 6-13
SMILES: CC(=O)N[C@@H](C)C(=O)NCC(=O)N1CCC[C@H]1C(=O)N[C@H](C(=O)N[C@@H](Cc1c[nH]c2ccccc12)C(=O)N[C@H]1CSSC[C@@H](C(=O)N[C@@H](Cc2c[nH]c3ccccc23)C(=O)N[C@@H](CC(C)C)C(=O)N[C@@H](Cc2ccccc2)C(=O)NCC(=O)N[C@H](C(=O)NCC(=O)NCC(=O)NCC(=O)N[C@@H](CCCCNC(=O)COCCOCCNC(=O)COCCOCCNC(=O)CCCC[C@@H]2SC[C@@H]3NC(=O)N[C@@H]32)C(N)=O)[C@@H](C)O)NC(=O)[C@H](Cc2ccc(O)cc2)NC(=O)[C@H](Cc2ccc(O)cc2)NC(=O)[C@H](Cc2c[nH]c3ccccc23)NC(=O)[C@H](CC(=O)O)NC(=O)[C@H](CC(=O)O)NC(=O)[C@H](CCC(=O)O)NC1=O)[C@@H](C)O
- % inhibition of 125I-VEGF binding [1]: 104%
- % inhibition of 125I-VEGF binding [2]: 81%
- IC50, receptor activation assay [3]: 100 nM

Binder: Ac-AQGDYVYWEIIELTGATDHTPPGGGK-NH2 [P11-D]
- inhibition of VEGF-induced KDR phosphorylation [3]: ≥ 50 % inhibition at 10 µM

B2: D1 (peptide)
peptide 1: AGPTWCEDDWYYCWLFGTGGGK
peptide 2: VCWEDSWGGEVCFRYDPGGGK
modifications: linker (positions not given here) via Glutaryl; disulfide I:6-I:13, II:2-II:12; also: two chains linked by a glutaryl linker, exact groups only in a drawing
- IC50, receptor activation assay [3]: 0.5 to 1 nM

B3: P3-D (peptide)
peptide: Ac-AGWLECYAEFGHCYNFGTGGGK-NH2
modifications: disulfide 6-13
SMILES: CC(=O)N[C@@H](C)C(=O)NCC(=O)N[C@@H](Cc1c[nH]c2ccccc12)C(=O)N[C@@H](CC(C)C)C(=O)N[C@@H](CCC(=O)O)C(=O)N[C@H]1CSSC[C@@H](C(=O)N[C@@H](Cc2ccc(O)cc2)C(=O)N[C@@H](CC(N)=O)C(=O)N[C@@H](Cc2ccccc2)C(=O)NCC(=O)N[C@H](C(=O)NCC(=O)NCC(=O)NCC(=O)N[C@@H](CCCCN)C(N)=O)[C@@H](C)O)NC(=O)[C@H](Cc2c[nH]cn2)NC(=O)CNC(=O)[C@H](Cc2ccccc2)NC(=O)[C@H](CCC(=O)O)NC(=O)[C@H](C)NC(=O)[C@H](Cc2ccc(O)cc2)NC1=O
- inhibition of VEGF-induced KDR phosphorylation [3]: ≥ 50 % inhibition at 10 µM

B4: P7-E (peptide)
peptide: Ac-GDWWECK(ivDde′)REEYRNTTWCAWADPGGGK-NH2
modifications: disulfide 6-17
SMILES: CC(=O)NCC(=O)N[C@@H](CC(=O)O)C(=O)N[C@@H](Cc1c[nH]c2ccccc12)C(=O)N[C@@H](Cc1c[nH]c2ccccc12)C(=O)N[C@@H](CCC(=O)O)C(=O)N[C@H]1CSSC[C@@H](C(=O)N[C@@H](C)C(=O)N[C@@H](Cc2c[nH]c3ccccc23)C(=O)N[C@@H](C)C(=O)N[C@@H](CC(=O)O)C(=O)N2CCC[C@H]2C(=O)NCC(=O)NCC(=O)NCC(=O)N[C@@H](CCCCN)C(N)=O)NC(=O)[C@H](Cc2c[nH]c3ccccc23)NC(=O)[C@H]([C@@H](C)O)NC(=O)[C@H]([C@@H](C)O)NC(=O)[C@H](CC(N)=O)NC(=O)[C@H](CCCNC(=N)N)NC(=O)[C@H](Cc2ccc(O)cc2)NC(=O)[C@H](CCC(=O)O)NC(=O)[C@H](CCC(=O)O)NC(=O)[C@H](CCCNC(=N)N)NC(=O)[C@H](CCCCNC(CC(C)C)=C2C(=O)CC(C)(C)CC2=O)NC1=O
- inhibition of VEGF-induced KDR phosphorylation [3]: ≥ 50 % inhibition at 10 µM

B5: P8-D (peptide)
peptide: Ac-GDPDTCTMWGDSGRWYCFPADPGGGK-NH2
modifications: disulfide 6-17
SMILES: CSCC[C@@H]1NC(=O)[C@H]([C@@H](C)O)NC(=O)[C@@H](NC(=O)[C@@H](NC(=O)[C@H](CC(=O)O)NC(=O)[C@@H]2CCCN2C(=O)[C@H](CC(=O)O)NC(=O)CNC(C)=O)[C@@H](C)O)CSSC[C@@H](C(=O)N[C@@H](Cc2ccccc2)C(=O)N2CCC[C@H]2C(=O)N[C@@H](C)C(=O)N[C@@H](CC(=O)O)C(=O)N2CCC[C@H]2C(=O)NCC(=O)NCC(=O)NCC(=O)N[C@@H](CCCCN)C(N)=O)NC(=O)[C@H](Cc2ccc(O)cc2)NC(=O)[C@H](Cc2c[nH]c3ccccc23)NC(=O)[C@H](CCCNC(=N)N)NC(=O)CNC(=O)[C@H](CO)NC(=O)[C@H](CC(=O)O)NC(=O)CNC(=O)[C@H](Cc2c[nH]c3ccccc23)NC1=O
- inhibition of VEGF-induced KDR phosphorylation [3]: ≥ 50 % inhibition at 10 µM

B6: Head-to-head dimer (P9/P10 heterodimer) (peptide)
peptide 1: AQEPEGYAYWEVITLYHEEDGDGG
peptide 2: AQAFPRFGGDDYWIQQYLRYTDGG
modifications: bridge I:N-II:N; not fully specified (N-terminus); also: head-to-head heterodimer, N-termini joined by oxime
notes: also called H-H dimer
- fold increase in affinity over P10 (Soluble KDR receptor): > 560 fold
